Data taken from the RNAGym collection of RNA variant scans (doi:10.1021/acssynbio.7b00057).

B1: Pistol ribozyme (parent)
chain: GGGUCGUUGUUCCAUAAUCGCGUGGAUAUGGCACGCAAGUUUCUACCGGGCACCGUAAAUGUCCGACUGGAGCCGUUCGGGCGGCUAUAAACAGACCUCAGGCCCGAAGCGUGGCGGCACCUGCCGCCGGUGGUAAAAAAGAUCGGAAGAGCACACGUCU

Variants of: B1
Assay: aptazyme ON/OFF ratio, guanine; higher = stronger switching; co-transcriptional cleavage with and without guanine

Variant	aptazyme ON/OFF ratio
U7G U8G G9A U10A U11C C13G	1.06
U7G U8G G9A U10A U11C C13A	1.08
U7G U8C U10G U11C C12A	1.57
U7G U8C U10G U11C C12U	1.34
U7G U8C U10G U11C C12G	2.08
U7G U8C U11G C12A	1.14
U7G U8C U11G C12U	1.28
U7G U8C U11G C12G	1.22
U7G U8C U10A C12A C13G	1.1
U7G U8C U10A C12A C13U	1.36
U7G U8C U10A C12A C13A	1.24
U7G U8C U10C U11G C12U	1.3
U7G U8C U10C U11G C12G	1.15
U7G U8C U10C U11G C12A	1.24
U7G U8G G9A C12A C13A	1.32
U7G U8G G9A C12A C13U	1.49
U7G U8G G9A C12A C13G	1.11
U7G U8C U10G U11G C12G	1.22
U7G U8C U10G U11G C12U	1.43
U7G U8C U10G U11G C12A	1.18
U7G U8G G9A C12G	1.59

Variant	aptazyme ON/OFF ratio
U7G U8G G9A C12U	1.68
U7G U8G G9A C12A	1.41
U7G U8C U10C U11A C12G	1.25
U7G U8C U10C U11A C12U	1.39
U7G U8C U10C U11A C12A	1.44
U7G U8C U10A U11G C12U	1.22
U7G U8C U10A U11G C12G	1.19
U7G U8C U10A U11G C12A	1.1
U7G U8C U10G C12A	1.33
U7G U8C U10G C12G	1.05
U7G U8C U10G C12U	1.36
U7G U8C U11C C12G	1.38
U7G U8C U11C C12U	1.57
U7G U8C U11C C12A	1.69
U7G U8C U10G U11G C13U	1.3
U7G U8C U10G U11G C13G	1.26
U7G U8C U10G U11G C13A	1.22
U7G U8C U10C U11A C13A	1.18
U7G U8C U10C U11A C13U	1.35
U7G U8C U10C U11A C13G	1.07
U7G U8C U10G U11A C12G C13U	1.23

Variant	aptazyme ON/OFF ratio
U7G U8C U10G U11A C12G C13G	1.21
U7G U8C U10G U11A C12G C13A	1.09
U7G U8C U10G U11A C12G	1.13
U7G U8C U10G U11A C12A	1.15
U7G U8C U10G U11A C12U	1.22
U7G U8C U10C U11A C12A C13U	1.21
U7G U8C U10C U11A C12A C13G	1.14
U7G U8C U10C U11A C12A C13A	1.26
U7G U8C U11G C12U C13G	1.08
U7G U8C U11G C12U C13A	1.14
U7G U8C U11G C12U C13U	1.22
U7G U8C G9U U11G C12U	1.55
U7G U8C G9U U11G C12G	1.34
U7G U8C G9U U11G C13G	1.05
U7G U8C G9U U11G C13U	1.41
U7G U8C G9U U11G C13A	1.32
U7G U8C U10A U11A C12G C13A	1.1
U7G U8C U10A U11A C12G C13G	1.22
U7G U8C U10A U11A C12G C13U	1.26
U7G U8C U11C C12G C13U	1.46
U7G U8C U11C C12G C13G	1.11

Variant	aptazyme ON/OFF ratio
U7G U8C U11C C12G C13A	1.32
U7G U8C U10G U11C C12U C13G	1.23
U7G U8C U10G U11C C12U C13A	1.4
U7G U8C U10G U11C C12U C13U	1.47
U7G U8C G9U U11G C12U C13A	1.26
U7G U8C G9U U11G C12U C13G	1.28
U7G U8C G9U U11G C12U C13U	1.35
U7G U8G C13A	1.4
U7G U8G C13G	1.42
U7G U8G C13U	1.7
U7G U8C U11A C13U	1.32
U7G U8C U11A C13G	1.03
U7G U8C U11A C13A	1.14
U7G U8G G9A U10A U11C C12A C13U	1.09
U7G U8G G9A U10A U11C C12A C13G	1.17
U7G U8G G9A U10A U11C C12A C13A	1.06
U7G U8C U11G C13U	1.17
U7G U8C U11G C13A	1.29
U7G U8C U11G C13G	1.2
U7G U8C U10G U11C C12G C13G	1.18
